According to the nanobody polyreactivity screen of Harvey et al. (2022):

Experiment: yeast display, Sf9 membrane polyspecificity reagent, FACS + sequencing; frameworks hold sequencing errors
In short: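 In a synthetic yeast display library (Saccharomyces cerevisiae BJ5465), nanobody expression was induced with galactose for 36–48 hours. FACS gates were set low and high (top ~1%) using anti-HA fluorescence for expression and streptavidin fluorescence for binding of the Sf9 membrane reagent. Each polyreactivity label is drawn from the gate of origin.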

Sequence	polyreactivity (PSR sort gate)
QVQLVESGGGLVQAGGSLRLSCAASGSTFSDNVMGWYRQAPGKERELVAGITRSGGRTYYADSVKGRFTISRDNAKNTVDLQMNSLKPEDTEVYYCAARRSGSKSGLFDYWGQGTQVTVSS	low polyreactivity
QVQLVESGGGLVQAGGSLRLSCAASGSTFSDYAMGWYRQAPGKERELVAGITETGTTTYYADSVKGRFTISRDNAKNTVYLQMNSLKPEDTAVYYCAAYVVTYYYGTGYYSYDYWGQGTQVNVSS	low polyreactivity
QVQLVESGGGLVQAGGSLRLSCAASGSTFSEYAMGCYRQAPGKERELVAAITWDGGSTYYPDSVKGRFTISRDNAKNTVYLQMNSLKPEDTAVYYCATDGWSYSYGYWGQGTQVTVSS	low polyreactivity
QVQLVESGGGLVQAGGSLRLSCAASGSTFSFNAMGWYRQAPGKERELVAAISRSGGRTYYADSVKGRFTISRDNAKNTVYLQMNSLKPEDTAVYYCNKVWFQRSVQPVEYDYWGQGTQVTVSS	high polyreactivity
QVQLVESGGGLVQAGGSLRLSCAASGSTFSFNAMGWYRQAPGKERELVAAISYSDSTTYYADSVKGRFTISRDNAKNTVYLQMNSLKPEDTAVYYCAAETGPYYRFGGDYWGQGTQVTVSS	high polyreactivity
QVQLVESGGGLVQAGGSLRLSCAASGSTFSGNALGWYRQPPGKERELVAAITSSGGSTDYADSVKGRFTISRDNAKNSVYLQMNSLKPEDTAVYYCNTVFHYFNSGAYNFGYWGQGTQVTVSS	high polyreactivity
QVQLVESGGGLVQAGGSLRLSCAASGSTFSGNAMGWYRQAPGKERELVAAITRSGSRTYYADSVKGRFTISRDNAKNTVYLQMNSLKPEDTAVYYCAKVGRTGDDYYYWGQGTQVTVAS	high polyreactivity
QVQLVESGGGLVQAGGSLRLSCAASGSTFSGYAMGWYRQAPGKERELVAAINWNGGRTYYADSVKGRFTISRDNAKNTVYLQMYSLKPADTAVSYCNKQSPRGRSAVYKYDYWGQGTQVTVSS	high polyreactivity
QVQLVESGGGLVQAGGSLRLSCAASGSTFSGYDMGWYRQAPGKERELVAAISKSGGRTYYADSVKGRFTISRDNAKNTVYLQMKSLKPEDTAVYYCNTDSPYDTYYFLWWREDYYWGQGTQVTVSS	low polyreactivity
QVQLVESGGGLVQAGGSLRLSCAASGSTFSGYMGWYRQAPGKERELVAAITSSGGSTYYADSVKGRFTISRDNAKNTVYLQMYSLKPEDTAVYYCAADGGYRGEDYWGQGTQVTVSS	high polyreactivity
QVQLVESGGGLVQAGGSLRLSCAASGSTFSHNAMGWYRQAPGKERELVAAISWSGVGTYADSVKGRFTISRDNAKNTVYLQMNSLKPEDTAVYYCNKVSYPSTSSSWFDYWGQGTQVTVSS	low polyreactivity
QVQLVESGGGLVQAGGSLRLSCAASGSTFSIYAMGGDRQAPGKERELVAAITRRSGSTYYADSVKGRFTISRDNAKNTVSLQMNSLKPEDTAVYYCAADTWRTDYTSSYYKNRDSWGQGTQVTVSS	high polyreactivity
QVQLVESGGGLVQAGGSLRLSCAASGSTFSIYTMGWYRQAPGKERELVAAITRGGSTYYADSVKGRFTISRDNAKNTVYLQMNSLKPEDTAVYYCAADYVSYYRGGRYIELDYWGQGTQVTVSS	low polyreactivity
QVQLVESGGGLVQAGGSLRLSCAASGSTFSKYTMGWYRQAPGKERELVAAISRSGGRTYYADSVKGRFTISRDNAKNTVYLQMNSLKPEDTAVYYCATVVYVFGYSSPMYYWGQGTQVTVSS	high polyreactivity
QVQLVESGGGLVQAGGSLRLSCAASGSTFSLNAMGWYRQAPGKERELVAAISGSGGSTYYADSVKGRFTISRDNAKHTVYLQMNSLKPEDTAVYYCNKYYYPLRKSFGYWGQGTQVTVSS	high polyreactivity
QVQLVESGGGLVQAGGSLRLSCAASGSTFSLYAMGWYRQAPGKERELVAAISSSGGSTYYADYVKGRFTISRDNAKNTVYLQMNSLKPEDTAVYYCAAYRVGSYDYWGQGTQVTVSS	high polyreactivity
QVQLVESGGGLVQAGGSLRLSCAASGSTFSLYAMGWYRQAPGKERELVAAITYSGTSTYYADSVKGRFTISRDNAKNTVYLQMNSLKPEDTAVYYCNVESWGGHDFTWAVTSGGYWGQGTQVTVSS	low polyreactivity
QVQLVESGGGLVQAGGSLRLSCAASGSTFSLYAMGWYRQAPGKERELVASITWGGGSTYADSVKGRFTISRDNAKNTVYLQMNSLKPEDTAVYYCARKYRYRVLYDFAYDHWGQGTQVTVSS	low polyreactivity
QVQLVESGGGLVQAGGSLRLSCAASGSTFSNVMGWYRQAPGKEREFVARISKSGGSTYYADSVKGRFTISRDNAKNSVYLQMNSLKPEDTAVYYCATGRFRRTEYGGRYDYWGQGTKVTVSS	high polyreactivity
QVQLVESGGGLVQAGGSLRLSCAASGSTFSNYALGWYRPAPGKERELVAAITGRGGRTYYADSVKGRFTISRDNAKNTVYLQMNSLKPEDTAVYYCNADYWSRMDYWGQGTQVTVSS	high polyreactivity
QVQLVESGGGLVQAGGSLRLSCAASGSTFSNYAMGWYRQAPGKERELVAAISRRGTSTYYADSVKGRFTISRDNAKNTVYLQMNSLKPEDTAVYYCAADYFRYTYDYWGQGTQVTVSS	high polyreactivity
QVQLVESGGGLVQAGGSLRLSCAASGSTFSNYAMGWYRQAPGKERELVAVITRGASTYYADSVKGRFTISRDNAKNTVYLPMNSLKPEDTAVFYCNVPIRGQLVHTYPYDYWGQGTQVTVSS	high polyreactivity

Sequence	polyreactivity (PSR sort gate)
QVQLVESGGGLVQAGGSLRLSCAASGSTFSPNARGWYRQAPGKERELVAAITYRGANTYYADSVKGRFTISRDNAKNTVYLQMNSLKPEDTAVYYCAAENWIGAYYWGQGTQVTVSS	low polyreactivity
QVQLVESGGGLVQAGGSLRLSCAASGSTFSPNVMGWYRQAPGKERELVAAISSSTGSTNYADSVKGRFTISRDNAKNTVYLQMNSLKPEDTAVYYCAVDPYVHWTTKLYDYWGQGTQVTVSS	low polyreactivity
QVQLVESGGGLVQAGGSLRLSCAASGSTFSPYAMGWYRQAPGKERELVAAISSSGGSTYYADSVKGRFTISRDNAKNTVYLQMNSLKPEDTAVYYCRSFTSAQTLDYWGQGTQVTVSS	high polyreactivity
QVQLVESGGGLVQAGGSLRLSCAASGSTFSPYAMGWYRQAPGKERELVAGITGNGGSTRYADSVKGRFTISRDNAKNTVYLQMNSLKPEDTAVYYCAARWTRQRYRTSYYSWGQGTQVTVSS	high polyreactivity
QVQLVESGGGLVQAGGSLRLSCAASGSTFSQNAMGWYRQAPGKERELVAVISSSGGRTNYADSVKGRFTISRDNAKNTVYLQMNSLKPEDTSVYYCAKRLRVLYYYWGQGTQVTVSS	high polyreactivity
QVQLVESGGGLVQAGGSLRLSCAASGSTFSRNAMGWYRPAPGKERELVAAISSSGGRTYYADSVKGRFTISRDNAKNTVYLQMNSLKPQDTAVYYCAADWWRVEMDYWGQGTQVTVSS	low polyreactivity
QVQLVESGGGLVQAGGSLRLSCAASGSTFSRNAMGWYRQAPGKERELVATISRSGRTNYADSVKGRFTISRDNAKNTVYLQMNSLKPEDTAVYYCNAGYRRSYEYWGQGTQVTVSS	low polyreactivity
QVQLVESGGGLVQAGGSLRLSCAASGSTFSRNVMGWYRQAPGKERELVAAISRGGSTNYADSVKGRFTISRENAKNTVYLQMNSLKPEDTAVYYCNAPRLGKFYYWGQGTQVTVSS	low polyreactivity
QVQLVESGGGLVQAGGSLRLSCAASGSTFSRYAMGSYRQAPGKERELVAAITGTGGRTYYADSVKGRFTISRDNAKNTVYLQMNSLKPEDTAVYYCAAQRWTVKYNYWGQGTQVTVSS	high polyreactivity
QVQLVESGGGLVQAGGSLRLSCAASGSTFSRYAMGWYRHAPGKERELVAAISSSGGGTYYADSVKGRFTISRDTAKNTVFFQMNSLKPEDTAVYYCAKSYRRRQGYYYWGQGTQVTVSS	high polyreactivity
QVQLVESGGGLVQAGGSLRLSCAASGSTFSRYAMGWYRQAPGKERELVAAISQGGGRTYYADSVKGRFTISRDNAKNTVYLQMNSLKPEDTAVYYCAAREYYRKPYDHWGQGTQVTVSS	high polyreactivity
QVQLVESGGGLVQAGGSLRLSCAASGSTFSRYAMGWYRQAPGKERELVAAISSSGGGTYYADSVKGRFTISRDNAKNTVYLQMNSLKPEDTAVYYCAAKRVHGATGYWGQGTQVTVSS	high polyreactivity
QVQLVESGGGLVQAGGSLRLSCAASGSTFSRYAMRWYRQAPGKEMELVAAISSRGGSTYYADSVKGRFTISRDNAMNTVYLQMNSLKPEDTAFYYCAVKSYRLTGRGYWGQGTQVTVSS	high polyreactivity
QVQLVESGGGLVQAGGSLRLSCAASGSTFSRYTMGWSRQAPGKERELVAAISYRGGSTYYADSVKGRFTISRDNAKNTVYLQMNSLKPEDTAVYYCAADAEGSASKYDYWGQGTQVTVSS	low polyreactivity
QVQLVESGGGLVQAGGSLRLSCAASGSTFSRYVMGWYRQAPGKERELVAAISSTGGSTYYADSVKGRFTISRDNAKNTVYLQMNSLKPEDTAVYYCNTTYSYGVAAARYYYWGQGTQVTVSS	high polyreactivity
QVQLVESGGGLVQAGGSLRLSCAASGSTFSRYVMVWYRQAPGKERELVAAISRSGSTYYADSVKGRFTISRDNAMNTVYLQMNSLKPEDTAVYYFDATGSKSAGYGYWGQGTQVTVSS	high polyreactivity
QVQLVESGGGLVQAGGSLRLSCAASGSTFSSNAMGWYRQAPGKEREFVAGISRSGGSTYYADSVKGRFTISRDNAKNTVYLQMNSLKPEDTAVYYCAARGGPGFKFGYWGQGTQVTVSS	high polyreactivity
QVQLVESGGGLVQAGGSLRLSCAASGSTFSSNAMGWYRQAPGKERELVAAINRTGNTYYADSVKGRFTISRDNAKNTVYLQMNSLKPEDTAVYYCNTDLNLYRGGGYWGQGTQVTVSS	low polyreactivity
QVQLVESGGGLVQAGGSLRLSCAASGSTFSSYAMGWYRQAPGKEREFVAAISRSGVRTYYADSVKGRFTISRDNAKNSVYLQMNSLNPEDTVVYYCAAVSSLSYSFPYDYWGQGTQVTVSS	high polyreactivity
QVQLVESGGGLVQAGGSLRLSCAASGSTFSSYAMGWYRQAPGKERELVAAITSSGGSTYYADSVKGRFTISRDNAKNTVYLQMNSLKPEDTAVYYCAAADVIFWLYYYWGQGTQVTVSS	low polyreactivity
QVQLVESGGGLVQAGGSLRLSCAASGSTFSSYAMGWYRQAPGKERELVARITSGGSTYYADSVKGRFTISRDNAKNTVYSQMNSLKPEDTAVYYCAARGYYYRSRVSQFKYDYWGQGTQVTVSS	high polyreactivity
